Data from US20140105889A1 (published 2014).

T1: human FcγRIIa type R (human, UniProt P12318 36-217)
T1 construct: also called Fcγ RIIaR; FcγRIIa(R)
T1 chain: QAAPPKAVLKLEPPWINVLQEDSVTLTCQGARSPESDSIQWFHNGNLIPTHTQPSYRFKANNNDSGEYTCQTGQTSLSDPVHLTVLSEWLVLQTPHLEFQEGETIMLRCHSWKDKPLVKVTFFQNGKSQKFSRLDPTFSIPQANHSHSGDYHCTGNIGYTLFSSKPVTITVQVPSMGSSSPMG

T2: human FcγRIIb (human, UniProt P31994 43-217)
T2 construct: also called FcγIIB; FcγRIIb extracellular region
T2 sequence: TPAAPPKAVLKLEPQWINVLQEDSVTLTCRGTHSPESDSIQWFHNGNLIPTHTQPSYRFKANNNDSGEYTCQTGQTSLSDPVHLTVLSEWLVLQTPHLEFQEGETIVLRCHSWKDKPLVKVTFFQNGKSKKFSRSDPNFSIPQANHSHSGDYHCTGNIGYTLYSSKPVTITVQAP

B1: IL6R-PD079/IL6R-L (antibody, human IgG1)
heavy: QVQLQESGPGLVKPSETLSLTCAVSGHSISHDHAWSWVRQPPGEGLEWIGFISYSGITNYNPSLQGRVTISRDNSKNTLYLQMNSLRAEDTAVYYCARSLARTTAMDYWGEGTLVTVSSASTKGPSVFPLAPSSKSTSGGTAALGCLVKDYFPEPVTVSWNSGALTSGVHTFPAVLQSSGLYSLSSVVTVPSSSLGTQTYICNVNHKPSNTKVDKKVEPKSCDKTHTCPPCPAPELLGADSVFLFPPKPKDTLYISRTPEVTCVVVDVSHEDPEVKFNWYVDGVEVHNAKTKPREEQYNSTYRVVSVLTVLHQDWLNGKEYKCKVSNKALPAPIEKTISKAKGQPREPQVYTLPPSRDELTKNQVSLTCLVKGFYPSDIAVEWESNGQPENNYKTTPPVLDSDGSFFLYSKLTVDKSRWQQGNVFSCSVMHEALHYHYTQKSLSLSP
light: DIQMTQSPSSLSASVGDRVTITCRASQDISSYLNWYQQKPGKAPKLLIYYTSRLHSGVPSRFSGSGSGTDFTFTISSLQPEDIATYYCQQGNTLPYTFGQGTKVEIK
notes: PD variant: P238D/G237A introduced into IL6R-F11 (EU numbering); copies: 2 + 2
B2: IL6R-PD080/IL6R-L (antibody)
heavy: QVQLQESGPGLVKPSETLSLTCAVSGHSISHDHAWSWVRQPPGEGLEWIGFISYSGITNYNPSLQGRVTISRDNSKNTLYLQMNSLRAEDTAVYYCARSLARTTAMDYWGEGTLVTVSSASTKGPSVFPLAPSSKSTSGGTAALGCLVKDYFPEPVTVSWNSGALTSGVHTFPAVLQSSGLYSLSSVVTVPSSSLGTQTYICNVNHKPSNTKVDKKVEPKSCDKTHTCPPCPAPELLGDDSVFLFPPKPKDTLYISRTPEVTCVVVDVSHEDPEVKFNWYVDGVEVHNAKTKPREEQYNSTYRVVSVLTVLHQDWLNGKEYKCKVSNKALPAPIEKTISKAKGQPREPQVYTLPPSRDELTKNQVSLTCLVKGFYPSDIAVEWESNGQPENNYKTTPPVLDSDGSFFLYSKLTVDKSRWQQGNVFSCSVMHEALHYHYTQKSLSLSP
light: DIQMTQSPSSLSASVGDRVTITCRASQDISSYLNWYQQKPGKAPKLLIYYTSRLHSGVPSRFSGSGSGTDFTFTISSLQPEDIATYYCQQGNTLPYTFGQGTKVEIK
notes: PD variant: P238D/G237D introduced into IL6R-F11 (EU numbering); copies: 2 + 2
B3: IL6R-PD081/IL6R-L (antibody, human IgG1)
heavy: QVQLQESGPGLVKPSETLSLTCAVSGHSISHDHAWSWVRQPPGEGLEWIGFISYSGITNYNPSLQGRVTISRDNSKNTLYLQMNSLRAEDTAVYYCARSLARTTAMDYWGEGTLVTVSSASTKGPSVFPLAPSSKSTSGGTAALGCLVKDYFPEPVTVSWNSGALTSGVHTFPAVLQSSGLYSLSSVVTVPSSSLGTQTYICNVNHKPSNTKVDKKVEPKSCDKTHTCPPCPAPELLGEDSVFLFPPKPKDTLYISRTPEVTCVVVDVSHEDPEVKFNWYVDGVEVHNAKTKPREEQYNSTYRVVSVLTVLHQDWLNGKEYKCKVSNKALPAPIEKTISKAKGQPREPQVYTLPPSRDELTKNQVSLTCLVKGFYPSDIAVEWESNGQPENNYKTTPPVLDSDGSFFLYSKLTVDKSRWQQGNVFSCSVMHEALHYHYTQKSLSLSP
light: DIQMTQSPSSLSASVGDRVTITCRASQDISSYLNWYQQKPGKAPKLLIYYTSRLHSGVPSRFSGSGSGTDFTFTISSLQPEDIATYYCQQGNTLPYTFGQGTKVEIK
notes: PD variant: P238D/G237E introduced into IL6R-F11 (EU numbering); copies: 2 + 2
B4: IL6R-PD082/IL6R-L (antibody, human IgG1)
heavy: QVQLQESGPGLVKPSETLSLTCAVSGHSISHDHAWSWVRQPPGEGLEWIGFISYSGITNYNPSLQGRVTISRDNSKNTLYLQMNSLRAEDTAVYYCARSLARTTAMDYWGEGTLVTVSSASTKGPSVFPLAPSSKSTSGGTAALGCLVKDYFPEPVTVSWNSGALTSGVHTFPAVLQSSGLYSLSSVVTVPSSSLGTQTYICNVNHKPSNTKVDKKVEPKSCDKTHTCPPCPAPELLGFDSVFLFPPKPKDTLYISRTPEVTCVVVDVSHEDPEVKFNWYVDGVEVHNAKTKPREEQYNSTYRVVSVLTVLHQDWLNGKEYKCKVSNKALPAPIEKTISKAKGQPREPQVYTLPPSRDELTKNQVSLTCLVKGFYPSDIAVEWESNGQPENNYKTTPPVLDSDGSFFLYSKLTVDKSRWQQGNVFSCSVMHEALHYHYTQKSLSLSP
light: DIQMTQSPSSLSASVGDRVTITCRASQDISSYLNWYQQKPGKAPKLLIYYTSRLHSGVPSRFSGSGSGTDFTFTISSLQPEDIATYYCQQGNTLPYTFGQGTKVEIK
notes: PD variant: P238D/G237F introduced into IL6R-F11 (EU numbering); copies: 2 + 2
B5: IL6R-PD086/IL6R-L (antibody, human IgG1)
heavy: QVQLQESGPGLVKPSETLSLTCAVSGHSISHDHAWSWVRQPPGEGLEWIGFISYSGITNYNPSLQGRVTISRDNSKNTLYLQMNSLRAEDTAVYYCARSLARTTAMDYWGEGTLVTVSSASTKGPSVFPLAPSSKSTSGGTAALGCLVKDYFPEPVTVSWNSGALTSGVHTFPAVLQSSGLYSLSSVVTVPSSSLGTQTYICNVNHKPSNTKVDKKVEPKSCDKTHTCPPCPAPELLGLDSVFLFPPKPKDTLYISRTPEVTCVVVDVSHEDPEVKFNWYVDGVEVHNAKTKPREEQYNSTYRVVSVLTVLHQDWLNGKEYKCKVSNKALPAPIEKTISKAKGQPREPQVYTLPPSRDELTKNQVSLTCLVKGFYPSDIAVEWESNGQPENNYKTTPPVLDSDGSFFLYSKLTVDKSRWQQGNVFSCSVMHEALHYHYTQKSLSLSP
light: DIQMTQSPSSLSASVGDRVTITCRASQDISSYLNWYQQKPGKAPKLLIYYTSRLHSGVPSRFSGSGSGTDFTFTISSLQPEDIATYYCQQGNTLPYTFGQGTKVEIK
notes: PD variant: P238D/G237L introduced into IL6R-F11 (EU numbering); copies: 2 + 2
B6: IL6R-PD087/IL6R-L (antibody, human IgG1)
heavy: QVQLQESGPGLVKPSETLSLTCAVSGHSISHDHAWSWVRQPPGEGLEWIGFISYSGITNYNPSLQGRVTISRDNSKNTLYLQMNSLRAEDTAVYYCARSLARTTAMDYWGEGTLVTVSSASTKGPSVFPLAPSSKSTSGGTAALGCLVKDYFPEPVTVSWNSGALTSGVHTFPAVLQSSGLYSLSSVVTVPSSSLGTQTYICNVNHKPSNTKVDKKVEPKSCDKTHTCPPCPAPELLGMDSVFLFPPKPKDTLYISRTPEVTCVVVDVSHEDPEVKFNWYVDGVEVHNAKTKPREEQYNSTYRVVSVLTVLHQDWLNGKEYKCKVSNKALPAPIEKTISKAKGQPREPQVYTLPPSRDELTKNQVSLTCLVKGFYPSDIAVEWESNGQPENNYKTTPPVLDSDGSFFLYSKLTVDKSRWQQGNVFSCSVMHEALHYHYTQKSLSLSP
light: DIQMTQSPSSLSASVGDRVTITCRASQDISSYLNWYQQKPGKAPKLLIYYTSRLHSGVPSRFSGSGSGTDFTFTISSLQPEDIATYYCQQGNTLPYTFGQGTKVEIK
notes: PD variant: P238D/G237M introduced into IL6R-F11 (EU numbering); copies: 2 + 2
B7: IL6R-PD094/IL6R-L (antibody, human IgG1)
heavy: QVQLQESGPGLVKPSETLSLTCAVSGHSISHDHAWSWVRQPPGEGLEWIGFISYSGITNYNPSLQGRVTISRDNSKNTLYLQMNSLRAEDTAVYYCARSLARTTAMDYWGEGTLVTVSSASTKGPSVFPLAPSSKSTSGGTAALGCLVKDYFPEPVTVSWNSGALTSGVHTFPAVLQSSGLYSLSSVVTVPSSSLGTQTYICNVNHKPSNTKVDKKVEPKSCDKTHTCPPCPAPELLGWDSVFLFPPKPKDTLYISRTPEVTCVVVDVSHEDPEVKFNWYVDGVEVHNAKTKPREEQYNSTYRVVSVLTVLHQDWLNGKEYKCKVSNKALPAPIEKTISKAKGQPREPQVYTLPPSRDELTKNQVSLTCLVKGFYPSDIAVEWESNGQPENNYKTTPPVLDSDGSFFLYSKLTVDKSRWQQGNVFSCSVMHEALHYHYTQKSLSLSP
light: DIQMTQSPSSLSASVGDRVTITCRASQDISSYLNWYQQKPGKAPKLLIYYTSRLHSGVPSRFSGSGSGTDFTFTISSLQPEDIATYYCQQGNTLPYTFGQGTKVEIK
notes: PD variant: P238D/G237W introduced into IL6R-F11 (EU numbering); copies: 2 + 2
B8: IL6R-PD095/IL6R-L (antibody, human IgG1)
heavy: QVQLQESGPGLVKPSETLSLTCAVSGHSISHDHAWSWVRQPPGEGLEWIGFISYSGITNYNPSLQGRVTISRDNSKNTLYLQMNSLRAEDTAVYYCARSLARTTAMDYWGEGTLVTVSSASTKGPSVFPLAPSSKSTSGGTAALGCLVKDYFPEPVTVSWNSGALTSGVHTFPAVLQSSGLYSLSSVVTVPSSSLGTQTYICNVNHKPSNTKVDKKVEPKSCDKTHTCPPCPAPELLGYDSVFLFPPKPKDTLYISRTPEVTCVVVDVSHEDPEVKFNWYVDGVEVHNAKTKPREEQYNSTYRVVSVLTVLHQDWLNGKEYKCKVSNKALPAPIEKTISKAKGQPREPQVYTLPPSRDELTKNQVSLTCLVKGFYPSDIAVEWESNGQPENNYKTTPPVLDSDGSFFLYSKLTVDKSRWQQGNVFSCSVMHEALHYHYTQKSLSLSP
light: DIQMTQSPSSLSASVGDRVTITCRASQDISSYLNWYQQKPGKAPKLLIYYTSRLHSGVPSRFSGSGSGTDFTFTISSLQPEDIATYYCQQGNTLPYTFGQGTKVEIK
notes: PD variant: P238D/G237Y introduced into IL6R-F11 (EU numbering); copies: 2 + 2
B9: IL6R-PD097/IL6R-L (antibody, human IgG1)
heavy: QVQLQESGPGLVKPSETLSLTCAVSGHSISHDHAWSWVRQPPGEGLEWIGFISYSGITNYNPSLQGRVTISRDNSKNTLYLQMNSLRAEDTAVYYCARSLARTTAMDYWGEGTLVTVSSASTKGPSVFPLAPSSKSTSGGTAALGCLVKDYFPEPVTVSWNSGALTSGVHTFPAVLQSSGLYSLSSVVTVPSSSLGTQTYICNVNHKPSNTKVDKKVEPKSCDKTHTCPPCPAPELLGGDDVFLFPPKPKDTLYISRTPEVTCVVVDVSHEDPEVKFNWYVDGVEVHNAKTKPREEQYNSTYRVVSVLTVLHQDWLNGKEYKCKVSNKALPAPIEKTISKAKGQPREPQVYTLPPSRDELTKNQVSLTCLVKGFYPSDIAVEWESNGQPENNYKTTPPVLDSDGSFFLYSKLTVDKSRWQQGNVFSCSVMHEALHYHYTQKSLSLSP
light: DIQMTQSPSSLSASVGDRVTITCRASQDISSYLNWYQQKPGKAPKLLIYYTSRLHSGVPSRFSGSGSGTDFTFTISSLQPEDIATYYCQQGNTLPYTFGQGTKVEIK
notes: PD variant: P238D/S239D introduced into IL6R-F11 (EU numbering); copies: 2 + 2

Columns and labels:
[1] = target: T1, human FcγRIIa type R; test: SPR (Biacore), antibody captured on chip, FcγR as analyte; binding amount divided by that of IL6R-F652/IL6R-L, times 100
[2] = target: T2, human FcγRIIb; test: as above

Binder | relative binding activity for FcγRIIaR [1] | relative binding activity for FcγRIIb [2]
B1 | 138 % of the binding amount of IL6R-F652/IL6R-L | 101 % of the binding amount of IL6R-F652/IL6R-L
B2 | 222 % of the binding amount of IL6R-F652/IL6R-L | 127 % of the binding amount of IL6R-F652/IL6R-L
B3 | 117 % of the binding amount of IL6R-F652/IL6R-L | 101 % of the binding amount of IL6R-F652/IL6R-L
B4 | 380 % of the binding amount of IL6R-F652/IL6R-L | 108 % of the binding amount of IL6R-F652/IL6R-L
B5 | 268 % of the binding amount of IL6R-F652/IL6R-L | 112 % of the binding amount of IL6R-F652/IL6R-L
B6 | 196 % of the binding amount of IL6R-F652/IL6R-L | 109 % of the binding amount of IL6R-F652/IL6R-L
B7 | 593 % of the binding amount of IL6R-F652/IL6R-L | 122 % of the binding amount of IL6R-F652/IL6R-L
B8 | 543 % of the binding amount of IL6R-F652/IL6R-L | 124 % of the binding amount of IL6R-F652/IL6R-L
B9 | 844 % of the binding amount of IL6R-F652/IL6R-L | 139 % of the binding amount of IL6R-F652/IL6R-L
